Tests used:
HLA-DQ6 = HLA-DQ6 (human, UniProt P01909 24-254; P01920 33-261); assay: cell-based or functional assay
HLA-DR2b = target: T1, HLA-DR2b (human); assay: conclusion of Example 6; tolerance induction in HLA:DR2 (DRB1*1501) transgenic mice, no direct binding assay
T1 construct: whole, on cells; also called DR2b [DRB1*1501]; HLA:DR2 (DRB1*1501)

RASDYKSAHKGFKGV [MBP 130-144]
proliferation of T-cell clone MS17:A2 ([3H]-thymidine, stimulation index), against Mgar control cells (HLA-DQ6): 3.24 fold

PRHRDTGILDSIGRF [MBP 30-44]
proliferation of T-cell clone MS 49:D3 ([3H]-thymidine, stimulation index), against Mgar control cells (HLA-DQ6): 1.5 fold

GFKGVDAQGTLSKIF (also called ATX-MS-06; APITOPE MS6) [MBP 140-154]
binding result (HLA-DR2b): binds

Source: patent publication US8343500 (APITOPE TECHNOLOGY BRISTOL, dated 2013)
